Measurements taken from patent US20150337049A1 (Genmab, published 2015).
Positions count from the first letter of the chain named. In names and notes the source's numbering stands.

B1: IgG1-HER2 (IgG1-HER2-169-K409R), wild-type Fc (antibody)
heavy: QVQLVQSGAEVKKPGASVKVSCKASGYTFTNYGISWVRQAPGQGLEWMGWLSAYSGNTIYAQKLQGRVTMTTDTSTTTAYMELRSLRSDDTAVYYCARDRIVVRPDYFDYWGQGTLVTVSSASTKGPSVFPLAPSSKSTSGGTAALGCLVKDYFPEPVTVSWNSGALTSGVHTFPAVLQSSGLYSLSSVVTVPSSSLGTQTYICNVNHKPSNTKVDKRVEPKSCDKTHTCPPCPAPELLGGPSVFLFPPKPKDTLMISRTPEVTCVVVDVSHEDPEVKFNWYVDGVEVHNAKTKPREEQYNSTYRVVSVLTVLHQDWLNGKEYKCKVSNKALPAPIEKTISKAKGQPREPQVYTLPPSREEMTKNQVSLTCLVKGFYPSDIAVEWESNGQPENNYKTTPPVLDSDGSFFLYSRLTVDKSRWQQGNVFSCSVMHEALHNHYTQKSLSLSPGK
VL: EIVLTQSPATLSLSPGERATLSCRASQSVSSYLAWYQQKPGQAPRLLIYDASNRATGIPARFSGSGSGTDFTLTISSLEPEDFAVYYCQQRSNWPRTFGQGTKVEIK
B2: bsIgG1-CD3×HER2 (IgG1-huCLB-T3/4×HER2-169), wild-type Fc (bispecific antibody)
heavy 1: not shown
VL 1: EIVLTQSPATLSLSPGERATLSCSASSSVTYVHWYQQKPGQAPRLLIYDTSKLASGIPARFSGSGSGTDFTLTISSLEPEDFAVYYCFQGSGYPLTFGSGTKLEMR
heavy 2: not shown
VL 2: B1 VL
notes: also called bispecific IgG1-CD3×HER2; (bs)IgG-CD3×HER2
B3: IgG1-HER2-LFLE (IgG1-HER2-169-K409R with L234F/L235E) (antibody)
heavy: QVQLVQSGAEVKKPGASVKVSCKASGYTFTNYGISWVRQAPGQGLEWMGWLSAYSGNTIYAQKLQGRVTMTTDTSTTTAYMELRSLRSDDTAVYYCARDRIVVRPDYFDYWGQGTLVTVSSASTKGPSVFPLAPSSKSTSGGTAALGCLVKDYFPEPVTVSWNSGALTSGVHTFPAVLQSSGLYSLSSVVTVPSSSLGTQTYICNVNHKPSNTKVDKRVEPKSCDKTHTCPPCPAPEFEGGPSVFLFPPKPKDTLMISRTPEVTCVVVDVSHEDPEVKFNWYVDGVEVHNAKTKPREEQYNSTYRVVSVLTVLHQDWLNGKEYKCKVSNKALPAPIEKTISKAKGQPREPQVYTLPPSREEMTKNQVSLTCLVKGFYPSDIAVEWESNGQPENNYKTTPPVLDSDGSFFLYSRLTVDKSRWQQGNVFSCSVMHEALHNHYTQKSLSLSPGK
VL: B1 VL
notes: IgG1, K409R
B4: IgG1-HER2-LFLEPS (IgG1-HER2-169-K409R with L234F/L235E/P331S) (antibody)
heavy: B3 heavy with P335S
VL: B1 VL
notes: IgG1, K409R
B5: IgG1-HER2-DA (IgG1-HER2-169-K409R with D265A) (antibody)
heavy: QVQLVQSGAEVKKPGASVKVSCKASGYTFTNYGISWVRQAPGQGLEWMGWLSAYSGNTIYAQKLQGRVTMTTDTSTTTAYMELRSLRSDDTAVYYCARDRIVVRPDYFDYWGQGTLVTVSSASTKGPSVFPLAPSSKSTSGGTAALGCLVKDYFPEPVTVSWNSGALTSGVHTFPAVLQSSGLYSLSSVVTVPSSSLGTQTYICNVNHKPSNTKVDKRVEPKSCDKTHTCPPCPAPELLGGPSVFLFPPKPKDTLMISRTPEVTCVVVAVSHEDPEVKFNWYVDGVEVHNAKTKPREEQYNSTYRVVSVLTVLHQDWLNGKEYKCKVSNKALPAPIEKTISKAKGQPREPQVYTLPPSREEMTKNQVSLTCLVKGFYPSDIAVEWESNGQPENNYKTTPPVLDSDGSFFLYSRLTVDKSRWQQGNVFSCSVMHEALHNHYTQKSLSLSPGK
VL: B1 VL
notes: IgG1, K409R
B6: IgG1-HER2-DANQ (IgG1-HER2-169-K409R with D265A/N297Q) (antibody)
heavy: B3 heavy with F238L, E239L, D269A, N301Q
VL: B1 VL
notes: IgG1, K409R
B7: IgG1-HER2-… (IgG1-HER2-169-K409R with L234F/L235E/D265A/N297Q/P331S) (antibody)
heavy: B3 heavy with D269A, N301Q, P335S
VL: B1 VL
notes: IgG1, K409R
B8: bsIgG1-CD3×HER2-DA (IgG1-huCLB-T3/4×HER2-169 with D265A) (bispecific antibody)
heavy 1: not shown
VL 1: B2 VL 1
heavy 2: not shown
VL 2: B1 VL
B9: IgG1-HER2-LFLENQ (IgG1-HER2-169-K409R with L234F/L235E/N297Q) (antibody)
heavy: B3 heavy with N301Q
VL: B1 VL
notes: IgG1, K409R
B10: IgG1-HER2-LFLEDA (IgG1-HER2-169-K409R with L234F/L235E/D265A) (antibody, name in EU numbering)
heavy: B3 heavy with D269A
VL: B1 VL
notes: IgG1, K409R
B11: IgG1-HER2-DAPS (IgG1-HER2-169-K409R with D265A/P331S) (antibody)
heavy: B3 heavy with F238L, E239L, D269A, P335S
VL: B1 VL
notes: IgG1, K409R
B12: IgG1-HER2-N297Q (IgG1-HER2-169-K409R with N297Q) (antibody)
heavy: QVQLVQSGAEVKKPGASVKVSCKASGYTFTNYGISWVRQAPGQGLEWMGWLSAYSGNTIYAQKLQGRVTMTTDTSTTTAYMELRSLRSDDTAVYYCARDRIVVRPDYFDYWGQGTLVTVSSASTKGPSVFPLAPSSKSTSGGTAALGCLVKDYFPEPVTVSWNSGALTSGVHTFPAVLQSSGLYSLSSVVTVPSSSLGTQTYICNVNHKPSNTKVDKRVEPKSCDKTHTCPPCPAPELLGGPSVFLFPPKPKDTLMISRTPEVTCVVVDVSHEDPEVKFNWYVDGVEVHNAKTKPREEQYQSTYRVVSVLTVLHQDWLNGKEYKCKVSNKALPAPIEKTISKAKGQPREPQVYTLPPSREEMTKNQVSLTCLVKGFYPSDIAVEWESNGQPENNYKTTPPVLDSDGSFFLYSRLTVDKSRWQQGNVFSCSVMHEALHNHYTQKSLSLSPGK
VL: B1 VL
notes: IgG1, K409R; also called NQ
B13: IgG1-HER2-LALA (IgG1-HER2-169-K409R with L234A/L235A) (antibody)
heavy: B3 heavy with F238A, E239A
VL: B1 VL
notes: IgG1, K409R
B14: IgG1-CD3 (IgG1-huCLB-T3/4-F405L), wild-type Fc (antibody)
heavy: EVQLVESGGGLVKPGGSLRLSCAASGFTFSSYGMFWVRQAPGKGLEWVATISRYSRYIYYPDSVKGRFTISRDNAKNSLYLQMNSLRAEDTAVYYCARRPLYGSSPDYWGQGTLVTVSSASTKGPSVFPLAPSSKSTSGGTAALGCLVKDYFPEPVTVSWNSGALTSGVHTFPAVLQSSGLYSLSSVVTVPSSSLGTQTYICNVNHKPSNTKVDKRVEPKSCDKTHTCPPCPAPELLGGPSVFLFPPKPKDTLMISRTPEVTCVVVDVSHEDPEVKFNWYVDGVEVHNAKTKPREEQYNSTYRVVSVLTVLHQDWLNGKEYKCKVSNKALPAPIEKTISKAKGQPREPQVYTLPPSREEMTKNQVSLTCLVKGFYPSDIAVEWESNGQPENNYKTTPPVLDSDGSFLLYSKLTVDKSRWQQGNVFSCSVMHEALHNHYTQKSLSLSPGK
VL: B2 VL 1
notes: also called wild-type IgG1-CD3; IgG1-huCLB-3/4
B15: IgG1-CD3-LALA (IgG1-huCLB-T3/4-F405L with L234A/L235A) (antibody)
heavy: EVQLVESGGGLVKPGGSLRLSCAASGFTFSSYGMFWVRQAPGKGLEWVATISRYSRYIYYPDSVKGRFTISRDNAKNSLYLQMNSLRAEDTAVYYCARRPLYGSSPDYWGQGTLVTVSSASTKGPSVFPLAPSSKSTSGGTAALGCLVKDYFPEPVTVSWNSGALTSGVHTFPAVLQSSGLYSLSSVVTVPSSSLGTQTYICNVNHKPSNTKVDKRVEPKSCDKTHTCPPCPAPEAAGGPSVFLFPPKPKDTLMISRTPEVTCVVVDVSHEDPEVKFNWYVDGVEVHNAKTKPREEQYNSTYRVVSVLTVLHQDWLNGKEYKCKVSNKALPAPIEKTISKAKGQPREPQVYTLPPSREEMTKNQVSLTCLVKGFYPSDIAVEWESNGQPENNYKTTPPVLDSDGSFLLYSKLTVDKSRWQQGNVFSCSVMHEALHNHYTQKSLSLSPGK
VL: B2 VL 1
notes: IgG1, F405L
B16: IgG1-CD3-N297Q (IgG1-huCLB-T3/4-F405L with N297Q) (antibody)
heavy: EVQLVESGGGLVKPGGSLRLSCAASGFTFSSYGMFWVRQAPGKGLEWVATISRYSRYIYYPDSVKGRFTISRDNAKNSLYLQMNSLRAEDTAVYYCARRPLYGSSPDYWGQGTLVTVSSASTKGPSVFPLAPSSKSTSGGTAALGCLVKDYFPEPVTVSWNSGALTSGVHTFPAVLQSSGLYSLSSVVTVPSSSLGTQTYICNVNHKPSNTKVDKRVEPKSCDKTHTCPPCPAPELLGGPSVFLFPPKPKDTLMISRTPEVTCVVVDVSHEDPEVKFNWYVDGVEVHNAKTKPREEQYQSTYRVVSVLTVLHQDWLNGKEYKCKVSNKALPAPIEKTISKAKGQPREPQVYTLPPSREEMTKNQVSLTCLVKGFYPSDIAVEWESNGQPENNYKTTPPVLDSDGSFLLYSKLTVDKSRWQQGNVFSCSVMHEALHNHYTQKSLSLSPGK
VL: B2 VL 1
notes: IgG1, F405L; also called NQ
B17: IgG1-CD3-LFLE (IgG1-huCLB-T3/4-F405L with L234F/L235E) (antibody)
heavy: B15 heavy with A236F, A237E
VL: B2 VL 1
notes: IgG1, F405L
B18: IgG1-CD3-… (IgG1-huCLB-T3/4-F405L with L234F/L235E/D265A/N297Q/P331S) (antibody)
heavy: B15 heavy with A236F, A237E, D267A, N299Q, P333S
VL: B2 VL 1
notes: IgG1, F405L
B19: IgG1-CD3-LFLEPS (IgG1-huCLB-T3/4-F405L with L234F/L235E/P331S) (antibody)
heavy: B15 heavy with A236F, A237E, P333S
VL: B2 VL 1
notes: IgG1, F405L
B20: IgG1-CD3-LFLENQ (IgG1-huCLB-T3/4-F405L with L234F/L235E/N297Q) (antibody)
heavy: B15 heavy with A236F, A237E, N299Q
VL: B2 VL 1
notes: IgG1, F405L
B21: IgG1-CD3-LFLEDA (IgG1-huCLB-T3/4-F405L with L234F/L235E/D265A) (antibody, name in EU numbering)
heavy: B15 heavy with A236F, A237E, D267A
VL: B2 VL 1
notes: IgG1, F405L
B22: IgG1-CD3-DANQ (IgG1-huCLB-T3/4-F405L with D265A/N297Q) (antibody)
heavy: B15 heavy with A236L, A237L, D267A, N299Q
VL: B2 VL 1
notes: IgG1, F405L
B23: IgG1-CD3-DA (IgG1-huCLB-T3/4-F405L with D265A) (antibody)
heavy: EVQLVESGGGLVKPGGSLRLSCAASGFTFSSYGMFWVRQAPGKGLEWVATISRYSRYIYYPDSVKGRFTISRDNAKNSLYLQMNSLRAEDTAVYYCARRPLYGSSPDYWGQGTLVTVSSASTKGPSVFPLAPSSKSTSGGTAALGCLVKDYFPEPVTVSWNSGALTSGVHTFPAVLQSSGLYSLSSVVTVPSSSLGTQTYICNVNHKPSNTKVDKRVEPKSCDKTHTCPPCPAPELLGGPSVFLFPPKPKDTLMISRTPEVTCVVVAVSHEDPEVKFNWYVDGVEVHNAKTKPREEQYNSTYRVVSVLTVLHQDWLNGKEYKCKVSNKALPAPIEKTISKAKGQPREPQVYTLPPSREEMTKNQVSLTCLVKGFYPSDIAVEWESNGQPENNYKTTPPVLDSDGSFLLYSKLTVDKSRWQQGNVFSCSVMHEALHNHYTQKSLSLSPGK
VL: B2 VL 1
notes: IgG1, F405L
B24: IgG1-CD3-DAPS (IgG1-huCLB-T3/4-F405L with D265A/P331S) (antibody)
heavy: B15 heavy with A236L, A237L, D267A, P333S
VL: B2 VL 1
notes: IgG1, F405L

biological target: T1, HER2 on HER2-positive AU565 cells (human, UniProt P04626 23-1255); experiment: FACS, AU565 cells
T1 construct: whole, on cells
Description: Cells (1×10^5 cells/well) were incubated in polystyrene 96-well round-bottom plates (Greiner bio-one 650101) with serial dilutions of antibody preparations (range 2 to 10000 ng/mL in 4-fold dilutions for Jurkat cells and range 1 to 3000 ng/mL in 4-fold dilutions for on AU565 cells) in 100 μL PBS/0.1% BSA/0.02% azide at 4° C. for 30 min.
After washing twice in PBS/0.1% BSA/0.02% azide, cells were incubated in 100 μL with secondary antibody at 4° C. for 30 min. As a secondary antibody, R-Phycoerythrin (PE)-conjugated goat-anti-human IgG F(ab′)₂ (109-116-098, Jackson ImmunoResearch Laboratories, Inc., West Grove, Pa.) diluted 1/100 in PBS/0.1% BSA/0.02% azide, was used for all experiments. Next, cells were washed twice in PBS/0.1% BSA/0.02% azide, resuspended in 150 μL PBS/0.1% BSA/0.02% azide and analyzed on a FACS CantoII (BD Biosciences). Binding curves were analyzed using non-linear regression (sigmoidal dose-response with variable slope) using GraphPad Prism V5.04 software (GraphPad Software, San Diego, Calif., USA).

Row | binding result | Binder
1 | binds | B1
2 | binds | B2
3 | binds | B3
4 | binds | B4
5 | binds | B5
6 | binds | B6
7 | binds | B7
8 | binds | B8
9 | binds | B9
10 | binds | B10
11 | binds | B11
12 | binds | B12
13 | binds | B13

biological target: T2, C1q (from 3% pooled human serum) (human, UniProt P02745 23-245; P02746 28-253; P02747 29-245); experiment: ELISA, antibody coated, 3% pooled human serum, anti-C1q detection
T2 construct: Native C1q of pooled human serum, detected with rabbit anti-human C1q
Description: Plates were washed and blocked with PBS supplemented with 0.025% Tween 20 and 0.1% gelatine. […] Detection was performed by addition of 1 mg/mL 2,2′-azino-bis(3-ethylbenzothiazoline-6-sulfonic acid) (ABTS; Roche, Mannheim, Germany) for about 30 min. The reaction was stopped by the addition of 100 μL 2% oxalic acid. Absorbance was measured at 405 nm in a microplate reader (Biotek, Winooski, Vt.). Log transformed data were analyzed by fitting sigmoidal dose-response curves with variable slope using GraphPad Prism software.

Row | Binder | binding result
14 | B2 | binds
15 | B8 | no binding (tested: coated at 7-30000 ng/mL)
16 | B14 | binds
17 | B15 | no binding (tested: coated at 7-30000 ng/mL)
18 | B16 | no binding (tested: coated at 7-30000 ng/mL)
19 | B17 | no binding (tested: coated at 7-30000 ng/mL)
20 | B18 | no binding (tested: coated at 7-30000 ng/mL)
21 | B19 | no binding (tested: coated at 7-30000 ng/mL)
22 | B20 | no binding (tested: coated at 7-30000 ng/mL)
23 | B21 | no binding (tested: coated at 7-30000 ng/mL)
24 | B22 | no binding (tested: coated at 7-30000 ng/mL)
25 | B23 | no binding (tested: coated at 7-30000 ng/mL)
26 | B24 | no binding (tested: coated at 7-30000 ng/mL)
